Legend:
[1] = system: T1, UPF1-HD (Homo sapiens), Q92900-2; experiment: BLI; conditions: BLI: 20 mM HEPES pH 7.5, 150 mM K acetate, 2 mM Mg acetate, 1 mM DTT, 6.3% glycerol, 0.1% NP-40; EMSA: 20 mM MES pH 6.0, 150 mM K acetate, 2 mM DTT, 0.2 ug/ul …
T1 sequence: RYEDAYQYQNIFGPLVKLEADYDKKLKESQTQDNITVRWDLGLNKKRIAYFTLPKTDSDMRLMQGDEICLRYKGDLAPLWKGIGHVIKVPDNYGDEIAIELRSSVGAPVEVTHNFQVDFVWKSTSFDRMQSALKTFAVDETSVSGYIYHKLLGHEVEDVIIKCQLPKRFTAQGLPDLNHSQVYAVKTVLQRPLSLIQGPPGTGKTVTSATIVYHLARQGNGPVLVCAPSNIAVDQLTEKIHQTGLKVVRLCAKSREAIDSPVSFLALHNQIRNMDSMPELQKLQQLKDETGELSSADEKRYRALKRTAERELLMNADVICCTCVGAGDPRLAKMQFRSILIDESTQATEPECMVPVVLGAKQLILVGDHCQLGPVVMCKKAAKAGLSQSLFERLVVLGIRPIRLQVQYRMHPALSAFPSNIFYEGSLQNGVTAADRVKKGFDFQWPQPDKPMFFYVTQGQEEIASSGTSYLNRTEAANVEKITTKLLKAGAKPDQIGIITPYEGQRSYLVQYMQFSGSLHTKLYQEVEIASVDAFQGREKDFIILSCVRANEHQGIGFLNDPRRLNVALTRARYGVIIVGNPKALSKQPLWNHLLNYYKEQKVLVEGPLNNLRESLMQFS

[2] = biological target: GST-Tax_(CACA) (HTLV-1 Tax with C23 and C29 changed to alanine, N-terminal GST fusion) (HTLV-1) (UniProt P03409); experiment: BLI; BLItz; GST-Tax covalently bound to an AR2G sensor; UPF1 His-HD proteins in running buffer (300 mM NaCl, 20 mM phosphate, 0.02% Tween 20, 0.1% albumin); 250 s association, 60 s dissociation

5'-biotin 30-mer ssDNA (BLI)
Kd [1]: 8.25 nM

UPF1-HD_(R843C), histidine-tagged (from UniProt Q92900-2 295-914) (domain or fragment)
fold change of KD against WT [2]: 3.2 times
